According to US7666414B2, “Methods for treating prostate cancer using modified antibodies to prostate-specific membrane antigen” (Cornell Research Foundation, Inc., priority 2001, dated 2010):
pEC50, pIC50: −log10 of the molar value. Like-named read-outs stand apart in the source and are kept apart here.

How the values were obtained:
CD-1 mice = tested on: CD-1 mice
Description: Use of both mice and cynomolgus monkeys for nonclinical testing allowed comparison of exposure and toxicity across species on the basis of body surface area (mg/m^2), and thus aided in selecting the SSD for the proposed Phase 1 clinical trial.

LNCaP = experiment: Binding to LNCaP by FACS; design: species or system human
LNCaP cells = experiment: In vitro pharmacodynamics, LNCaP proliferation assay; format: cell-based, human; details: 6-day exposure in tissue culture
Protocol: At the end of that period the drug containing media was removed and replaced with drug free media until a total of 144 hours elapsed from the start of the experiment. The resulting effect of drug exposure on proliferation was then determined.

[1] = tested on: micronucleated polychromatic erythrocytes; experiment: Mouse micronucleus test; details: in vivo
[2] = male mice; for AUC, analyte Total deJ591 / AUC, analyte deJ591-DM1: 0-336 hours
[3] = tested on: PSMA-positive CWR22 xenografts; experiment: Efficacy in PSMA-positive CWR22 xenografts; format: in vivo, C.B-17 scid mice; details: for TGD: dosing interval study, five cycles
Protocol: (§1) Experiment: Male SCID mice were implanted by serial passage of CWR22 prostate tumor xenograft. […] All treatments were given intravenously. Tumor growth and animal health were continually monitored throughout the study with tumor growth measured every 3 days.
Experiment: Male C.B-17 SCID mice bearing CWR22 xenografts approximately 200 mm^3 in size received IV injections (200 μL constant volume) of the test articles according to the dose and schedule as shown in Table 22.
Male C.B-17 scid mice bearing CWR22 xenografts approximately 200 mm^3 in size received IV injections (200 μL constant volume) of the test articles according to the dose and schedule shown in the Table 23.
The objective of this study was to determine how much the dosing interval could be increased at this dosage before a loss of efficacy in terms of TGD would be observed. […] The growth delays for the other schedules were: q7d, 53.0 days; q21d, 48.0 days; and q28d, 26.9 days. Similar to other studies using the CWR22 xenograft model, no curative responses were observed, with all tumors eventually resuming growth (FIG. 18).
as §1, with “intravenously and on a schedule of every three days for 5 doses.” for “intravenously.”
as §1, with “intravenously and on a schedule of every seven days for 5 doses.” for “intravenously.”

[4] = tested on: PSMA-positive 22RV1 xenografts; experiment: Efficacy in castrate or intact scid mice bearing androgen-independent 22RV1 xenograft; format: in vivo, C.B-17 scid mice; details: 12.93 mg/kg
Protocol: Prostate tumors can be broadly classified as either androgen-dependent or androgen-independent. […] The 22RV1 cell line was originally developed as androgen-independent and can be grown as a xenograft in C.B-17 scid mice that have been left either intact or castrated. […] C.B-17 scid mice bearing CWR22 xenografts approximately 200 mm^3 in size received IV injections (200 μL constant volume) of the test articles according to the dosage and schedule shown in the Table 24.

[5] = Pharmacokinetics of deJ591 and deJ591-DM1 in cynomolgus monkeys
[6] = tested on: micronucleated polychromatic erythrocytes; details: 30, 48, and 90 mg/m^2
PSMA-negative cells = details: read-out: Non-specific in vitro cytotoxicity towards PSMA-negative cells, IC50
[7] = MLN2704 300 mg/m^2 (100 mg/kg), single IV, CD-1 mice
[8] = single IV deJ591-DM1 10 mg/kg (30 mg/m^2)
[9] = single IV deJ591-DM1 30 mg/kg (90 mg/m^2)
[10] = single IV deJ591-DM1 90 mg/kg (270 mg/m^2)
[11] = study CTBR 57355, deJ591-DM1 6 mg/kg (72 mg/m^2)
[12] = study CTBR 57355, deJ591-DM1 10 mg/kg (120 mg/m^2)
[13] = study CTBR 57355, deJ591-DM1 16 mg/kg ([…]^2)
[14] = study CTBR 57355, deJ591-DM1 30 mg/kg (360 mg/m^2)
[15] = study CTBR 57355, mean over dosages
[16] = study KLA W-171, deJ591-DM1 6 mg/kg (72 mg/m^2)

## deJ591-DM1: deJ591 conjugated via SPP disulfide linker to the maytansinoid DM1, DM1/antibody ratio about 3.5
CD-1 mice; 30 mg/m^2 (10 mg/kg)
  Degree of Toxicity and Major Target Organs: Mild toxicity to testes.
CD-1 mice; 48 mg/m^2 (16 mg/kg)
  Degree of Toxicity and Major Target Organs: Mild to moderate toxicity to reproductive
CD-1 mice; 90 mg/m^2 (30 mg/kg)
  Degree of Toxicity and Major Target Organs: Mild to moderate toxicity to reproductive,
CD-1 mice; 300 mg/m^2 (100 mg/kg)
  Degree of Toxicity and Major Target Organs: Moderate to severe toxicity to reproductive,
CD-1 mice; 480 mg/m^2 (160 mg/kg)
  mortality: 100% mortality attributed to severe
CD-1 mice; MLN2704 30 mg/m^2 (10 mg/kg), single IV, CD-1 mice
  Degree of Toxicity and Major Target Organs: Mild toxicity to testes.
CD-1 mice; MLN2704 48 mg/m^2 (16 mg/kg), single IV, CD-1 mice
  Degree of Toxicity and Major Target Organs: Mild to moderate toxicity to
CD-1 mice; MLN2704 90 mg/m^2 (30 mg/kg), single IV, CD-1 mice
  elevated AST and ALT values: mitosis/necrosis of liver; slightly
CD-1 mice; MLN2704 180 mg/m^2 (60 mg/kg), single IV, CD-1 mice
  elevated AST and ALT values: mitosis/necrosis of liver; moderately
CD-1 mice; [7]
  elevated AST and ALT values: mitosis/necrosis of liver; markedly
  mortality: 30% mortality attributed to severe
CD-1 mice; MLN2704 300 mg/m^2 (100 mg/kg), single IV, CD-1 mice, survivors
  Degree of Toxicity and Major Target Organs: toxicity. Moderate to severe toxicity to
CD-1 mice; MLN2704 480 mg/m^2 (160 mg/kg), single IV, CD-1 mice
  mortality: 100% mortality attributed to severe
CD-1 mice; calculated
  Mouse LD10 (female): 95 mg/kg
  Mouse LD10 (female), DM1-Equivalents received: 5.13 mg/m^2
  Mouse LD10 (male): 96 mg/kg
  Mouse LD10 (male), DM1-Equivalents received: 5.18 mg/m^2
CD-1 mice; lowest tested dosage 30 mg/m^2
  lower testes weights: 10%
CD-1 mice; mouse, in vivo
  Mouse LD100: 160 mg/kg
  Mouse MTD: 60 mg/kg
  Mouse STD, DM1-Equivalents received: 5.40 mg/m^2
CD-1 mice; single IV, CD-1 mice
  LD100: 160 mg/kg
  MTD: 60 mg/kg
CD-1 mice; single IV, CD-1 mice, females, calculated
  LD10 (females): 95 mg/kg
CD-1 mice; single IV, CD-1 mice, males, calculated
  LD10 (males): 96 mg/kg
LNCaP; listed as 1552-60S
  pEC50: 8.10
LNCaP; listed as N067020302
  pEC50: 8.16
LNCaP cells
  IC50 on PSMA-positive LNCaP cells: 0.21 µg/mL
[1]
  Lowest genotoxic dosage in ICR mice, DM1-Equivalents received: 0.54 mg/m^2
[2]; [8]
  Tmax, analyte Total deJ591: 30 min
  Tmax, analyte deJ591-DM1: 30 min
  AUC, analyte Total deJ591: 8920 µg·h/mL
  AUC, analyte deJ591-DM1: 3260 µg·h/mL
[2]; [9]
  Tmax, analyte Total deJ591: 4.8 min
  Tmax, analyte deJ591-DM1: 4.8 min
  AUC, analyte Total deJ591: 21000 µg·h/mL
  AUC, analyte deJ591-DM1: 5960 µg·h/mL
[2]; [10]
  Tmax, analyte Total deJ591: 4.8 min
  Tmax, analyte deJ591-DM1: 4.8 min
  AUC, analyte Total deJ591: 62300 µg·h/mL
  AUC, analyte deJ591-DM1: 30600 µg·h/mL
[3]; 7.25 mg/kg every seven days for 5 doses
  return to normal growth kinetics following the last dose: approximately 10 days
[3]; 7.28 mg/kg (120 μg/kg DM1-equivalents), q3dX5, IV
  Tumor Growth Delay: 27.1 days
[3]; 7.28 mg/kg (120 μg/kg DM1-equivalents), qdX5, IV
  Tumor Growth Delay: 19.6 days
[3]; 14.5 mg/kg every seven days for 5 doses
  tumor growth: suppression of tumor growth with some reduction from the initial tumor volume
[3]; 14.5 mg/kg, 7 and 14 day dosing interval
  tumor growth: apparent block in tumor growth with a resumption of normal growth kinetics approximately 30 days after the last dose
[3]; 14.5 mg/kg, 21 or 28 day dosing interval
  tumor growth: slowed growth
[3]; 14.56 mg/kg (240 μg/kg DM1-equivalents), q3dX5, IV
  Tumor Growth Delay: 36.7 days
[3]; 14.56 mg/kg (240 μg/kg DM1-equivalents), qdX5, IV
  Tumor Growth Delay: 26.9 days
[3]; Comparison II, 4.8 mg/kg (90 μg/kg DM1-equivalents), q3dX5
  Tumor Growth Delay: 31.9 days
[3]; Comparison II, 6.5 mg/kg (120 μg/kg DM1-equivalents), q3dX5
  Tumor Growth Delay: 37.8 days
[3]; Comparison II, 6.5 mg/kg (120 μg/kg DM1-equivalents), q7dX5
  Tumor Growth Delay: 33.9 days
[3]; Comparison II, 9.7 mg/kg (180 μg/kg DM1-equivalents), q3dX5
  Tumor Growth Delay: 42.7 days
[3]; Comparison II, 12.93 mg/kg (240 μg/kg DM1-equivalents), q3dX5
  Tumor Growth Delay: 46.4 days
[3]; Comparison II, 12.93 mg/kg (240 μg/kg DM1-equivalents), q7dX5
  Tumor Growth Delay: 66.8 days
[3]; all dosages, Comparison I
  associated toxicity: less for all dosages of deJ591-DM1 relative to maytansine alone
[3]; doses and schedules of Comparison I
  curative effect: non-curative
[3]; 12.93 mg/kg, q7d
  TGD: 53.0 days
[3]; 12.93 mg/kg, q14d
  TGD: 75.7 days
[3]; 12.93 mg/kg, q21d
  TGD: 48.0 days
[3]; 12.93 mg/kg, q28d
  TGD: 26.9 days
[3]; mouse, in vivo
  Efficacious dosage in SCID mouse xenografts, DM1-Equivalents received: ~0.72 mg/m^2
[3]; reference standard batch
  In vivo activity - mouse xenograft model: Delays tumor growth
[3]; second course, 12.93 mg/kg
  effect on large tumors, 500 to 2000 mm^3: potent regressions
[4]; Castrate Mice, q3dX5
  Tumor Growth Delay: 26.3 days
[4]; Intact Mice, q3dX5
  Tumor Growth Delay: 13.1 days
[4]; Intact Mice, q7dX5
  Tumor Growth Delay: 7.8 days
[5]; [11]
  Tmax, analyte Total deJ591: 60 min
  Tmax, analyte deJ591-DM1: 48 min
  AUC, analyte Total deJ591: 17200 µg·h/mL
  AUC, analyte deJ591-DM1: 6720 µg·h/mL
[5]; [12]
  Tmax, analyte deJ591-DM1: 36 min
  t1/2, analyte Total deJ591: 200 h
  AUC, analyte Total deJ591: 31700 µg·h/mL
  AUC, analyte deJ591-DM1: 10600 µg·h/mL
[5]; [13]
  Tmax, analyte Total deJ591: 54 min
  Tmax, analyte deJ591-DM1: 48 min
  AUC, analyte Total deJ591: 44400 µg·h/mL
  AUC, analyte deJ591-DM1: 15600 µg·h/mL
[5]; [14]
  Tmax, analyte deJ591-DM1: 48 min
  AUC, analyte Total deJ591: 95000 µg·h/mL
  AUC, analyte deJ591-DM1: 33500 µg·h/mL
[5]; [15]
  Tmax, analyte Total deJ591: 54 min
  Tmax, analyte deJ591-DM1: 42 min
[5]; [16]
  Tmax, analyte Total deJ591: 300 min
  Tmax, analyte deJ591-DM1: 60 min
  AUC, analyte Total deJ591: 19900 µg·h/mL
  AUC, analyte deJ591-DM1: 5020 µg·h/mL
[6]
  increases in micronucleated polychromatic erythrocytes: positive
PSMA-negative cells; listed as 1552-60S
  pIC50: 7.87
PSMA-negative cells; listed as N067020302
  pIC50: 7.77
